Assay results: US20200040045, “CARBOHYDRATE PRODUCING PLANT MATERIAL” (GREEN RICE SWEDEN AB, published 2020)

What was measured:
SUSIBA1 [1] = target: SUSIBA1 (Hordeum vulgare); test: EMSA; 0.0125-0.2 ug SUSIBA1 prevents binding of 0.2 ug SUSIBA2 to the W-box; details: tags: overexpressed in and purified from E. coli; label: 32P
Experimental: (§1) The infiltrated leaves were incubated at 40 mM Suc. Two days after infiltration and incubation, qPCR analysis was performed. (C) Transcript levels of SUSIBA2 after co-infiltration of agrobacteria containing p35S:SUSIBA2 with the double-stranded decoy oligoes upon antisense inhibition of SUSIBA1. (D) Transcript levels of SUSIBA2 after infiltration of agrobacteria containing p35S:SUSIBA2 alone or the double-stranded decoy oligoes alone at 100 mM Suc. The infiltrated leaves were incubated at 100 mM Suc for two days before analysis. Significant differences are analyzed statistically between p35S:SUSIBA1 and decoy oligoes, and indicated by asterisks (**p≤0.01) in (B), and between p35:SUSIBA2 and decoy oligoes in (C), and between p35:SUSIBA2 and decoy oligoes in (D). One-way ANOVA was used (Error bars show s.d.) Three independent experiments were performed (n=3). (E) EMSA analysis of competitive activity to the W-box in the SUSIBA2 promoter between SUSIBA2 and SUSIBA1. EMSA of binding activity to the W-box of SUSIBA2 (left panel) and SUSIBA1 (middle panel) and SUSIBA2 and SUSIBA1 in competing (right panel). SUSIBA2 and SUSIBA1 were overexpressed and purified from E. coli and challenged with two oligoes. […]

SUSIBA2 = SUSIBA2 (Hordeum vulgare, UniProt Q6VWJ6 SEQ:1-573); test: EMSA; 0.2 ug SUSIBA2; displaced by SUSIBA1; details: tags: overexpressed and purified; label: 32P
Chain of SUSIBA2 (Q6VWJ6 whole entry): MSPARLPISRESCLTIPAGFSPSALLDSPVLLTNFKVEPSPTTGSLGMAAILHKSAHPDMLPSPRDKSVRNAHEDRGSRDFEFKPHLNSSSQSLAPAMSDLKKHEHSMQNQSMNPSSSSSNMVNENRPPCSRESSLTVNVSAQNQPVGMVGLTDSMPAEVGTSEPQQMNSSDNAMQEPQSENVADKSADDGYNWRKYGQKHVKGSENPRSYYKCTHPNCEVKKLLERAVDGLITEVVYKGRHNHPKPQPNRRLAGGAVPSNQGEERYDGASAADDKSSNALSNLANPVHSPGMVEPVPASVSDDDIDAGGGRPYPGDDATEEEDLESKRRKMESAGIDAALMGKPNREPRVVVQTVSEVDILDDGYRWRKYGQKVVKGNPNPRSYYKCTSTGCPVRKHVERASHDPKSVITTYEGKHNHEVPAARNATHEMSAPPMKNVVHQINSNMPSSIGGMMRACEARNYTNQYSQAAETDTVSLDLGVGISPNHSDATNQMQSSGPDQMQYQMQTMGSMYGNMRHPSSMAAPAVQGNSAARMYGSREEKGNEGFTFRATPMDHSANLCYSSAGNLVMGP
Experimental: as §1

SUSIBA1 [2] = target: SUSIBA1 (Hordeum vulgare); test: EMSA; A-stretch substitution; details: tags: overexpressed in and purified from E. coli; label: 32P
Experimental: (§2) Bars in (A-D)=5 μm and in (K-M)=100 μm. One-way ANOVA was used (Error bars show s.d. and **p≤0.01 between heat-killed background and living agrobacteria).
(§3) Having identified SUSIBA1 p, the potential involvement of SUSIBA1 in fructan synthesis was investigated. […] Electrophoretic mobility shift assay (EMSA) was used to study the in vitro interaction between SUSIBA1 and the promoter of 6-SFT that encodes a key enzyme in synthesis of fructan in barley. EMSA was performed as described previously using overexpressed and purified SUSIBA1 from E. coli (FIG. 8E to 8J). In accordance with the hallmark of WRKY proteins, it was shown that the […] TF bound to the W-box DNA cis-element. […] Examination of the 6-SFT promoter led to identification of two SUREa, three W-box and one SP8a element (FIG. 8E). Using different combinations of the restriction enzymes BstXI, PvulI and SpeI, the full-length promoter (fragment 1) was resolved into four fragments (fragments 2-5, FIG. 8E). […] To confirm the specificity of the binding activity, the element sequences (FIG. 8I) were engineered and the binding of SUSIBA1 was tested. […] No binding activity of SUSIBA1 to the engineered element sequences, i.e., SP8a M, W-box M and SUREa M4 also indicated the reliability of EMSA in the assay system (FIG. 8J). […]

SUSIBA1 [3] = target: SUSIBA1 (Hordeum vulgare); test: EMSA; details: tags: overexpressed in and purified from E. coli; label: 32P; second strand printed as 3'-5' complement, annealed duplex
Experimental: as §2, §3

Chain of SUSIBA1 (Hordeum vulgare) (Q6VWJ6 293-573): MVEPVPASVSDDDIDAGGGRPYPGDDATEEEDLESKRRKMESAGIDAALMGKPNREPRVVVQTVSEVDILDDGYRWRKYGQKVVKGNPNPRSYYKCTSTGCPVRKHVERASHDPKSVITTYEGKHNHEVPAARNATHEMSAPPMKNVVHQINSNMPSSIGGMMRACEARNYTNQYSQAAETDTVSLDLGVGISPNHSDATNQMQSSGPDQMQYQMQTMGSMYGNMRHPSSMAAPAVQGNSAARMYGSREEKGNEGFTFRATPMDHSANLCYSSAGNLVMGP

B1: SUSIBA2 promoter W-box oligo (dsDNA)
DNA 1: TAGGTCGTCAATTTGACTTATATAAAATAT
DNA 2: ATATTTTATATAAGTCAAATTGACGACCTA
B1: binds (SUSIBA1 [1]); binds (SUSIBA2).

B2: SUREa M4 (dsDNA)
DNA 1: CAAAAAAAAAAAAAAAAAAC
DNA 2: GTTTTTTTTTTTTTTTTTTG
B2: no binding (SUSIBA1 [2]).

B3: 6-SFT SUREa (dsDNA)
DNA 1: CACACATGGCACGCCAAAAC
DNA 2: GTTTTGGCGTGCCATGTGTG
B3: binds (SUSIBA1 [3]).

B4: 6-SFT SP8a (dsDNA)
DNA 1: CTGTACTGTGTTTTTAGCCT
DNA 2: AGGCTAAAAACACAGTACAG
B4: binds (SUSIBA1 [3]).
